Experimental findings from the supplement of paper PMC10567573 are described below.

The labels stand for the following.
B1: ZNF649 (parent)
chain: LVAHQRYHTGKTPFVCPECGQPCS
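Further: lentivirally expressed fusions sorted by FACS into six bins by GFP to DsRed ratio, PSI derived from sequencing read proportions per bin multiplied by bin number.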

In the series the parent is B1. In words: protein stability index of a GFP-peptide fusion (GPS, HEK-293T) (PSI 1-6); higher = more stable. The conditions noted are these: c terminus: a fixed tail appended.
Turning to LVAHQRYHRGKTPFVCPECGQPCS [T9R], the protein stability index amounted to 2.76.
Regarding LVAHQRYHYGKTPFVCPECGQPCS [T9Y], the protein stability index is 3.31.
As for LVAHQRYHIGKTPFVCPECGQPCS [T9I], the protein stability index stood at 3.77.
The same measure for LVAHQRYHAGKTPFVCPECGQPCS [T9A]: 2.77; for LVAHQRYHVGKTPFVCPECGQPCS [T9V]: 3.06; for LVAHQRYHHGKTPFVCPECGQPCS [T9H]: 2.6.
In the case of LVAHQRYHNGKTPFVCPECGQPCS [T9N] it was 3.05; in that of LVAHQRYHCGKTPFVCPECGQPCS [T9C], 2.65.
Consider LVAHQRYHEGKTPFVCPECGQPCS [T9E], for which the protein stability index stood at 3.7.
The same measure for LVAHQRYHKGKTPFVCPECGQPCS [T9K]: 2.52.
For the variant LVAHQRYHQGKTPFVCPECGQPCS [T9Q], the protein stability index was 3.31.
Turning to LVAHQRYHDGKTPFVCPECGQPCS [T9D], the protein stability index is 3.77.
Consider LVAHQRYHFGKTPFVCPECGQPCS [T9F], for which the protein stability index worked out at 3.62.
For LVAHQRYHSGKTPFVCPECGQPCS [T9S], the protein stability index was 3.1.
Take LVAHQRYHGGKTPFVCPECGQPCS [T9G]: the protein stability index turned out to be 3.53.
In the case of LVAHQRYHLGKTPFVCPECGQPCS [T9L], the protein stability index came out at 2.92.
In the case of LVAHQRYHMGKTPFVCPECGQPCS [T9M] it was 3.16; in that of LVAHQRYHPGKTPFVCPECGQPCS [T9P], 2.88.
In the case of LVAHQRYHWGKTPFVCPECGQPCS [T9W] it was 2.9; in that of LVAHQRYHTGKTPFVGPECGQPCS [C16G], 2.91; in that of LVAHQRYHTGKTPFVIPECGQPCS [C16I], 2.14.
Turning to LVAHQRYHTGKTPFVEPECGQPCS [C16E], the protein stability index amounted to 3.01.
In the case of LVAHQRYHTGKTPFVFPECGQPCS [C16F] it was 2.28.
Consider LVAHQRYHTGKTPFVRPECGQPCS [C16R], for which the protein stability index was found to be 2.89.
For the variant LVAHQRYHTGKTPFVDPECGQPCS [C16D], the protein stability index worked out at 3.8.
The same measure for LVAHQRYHTGKTPFVNPECGQPCS [C16N]: 2.88.
Consider LVAHQRYHTGKTPFVAPECGQPCS [C16A], for which the protein stability index is 2.35.
In the case of LVAHQRYHTGKTPFVQPECGQPCS [C16Q], the protein stability index turned out to be 3.03.
Turning to LVAHQRYHTGKTPFVKPECGQPCS [C16K], the protein stability index worked out at 2.75.
In the case of LVAHQRYHTGKTPFVLPECGQPCS [C16L] it was 2.5.
Regarding LVAHQRYHTGKTPFVSPECGQPCS [C16S], the protein stability index came out at 3.16.
Regarding LVAHQRYHTGKTPFVPPECGQPCS [C16P], the protein stability index worked out at 3.48.
The same measure for LVAHQRYHTGKTPFVHPECGQPCS [C16H]: 2.64; for LVAHQRYHTGKTPFVMPECGQPCS [C16M]: 2.72; for LVAHQRYHTGMTPFVCPECGQPCS [K11M]: 3.31.
Take LVAHQRYHTGRTPFVCPECGQPCS [K11R]: the protein stability index is 3.75.
Turning to LVAHQRYHTGQTPFVCPECGQPCS [K11Q], the protein stability index is 3.67.
The same measure for LVAHQRYHTGWTPFVCPECGQPCS [K11W]: 2.91; for LVAHQRYHTGCTPFVCPECGQPCS [K11C]: 3.39; for LVAHQRYHTGLTPFVCPECGQPCS [K11L]: 3.49.
As to LVAHQRYHTGATPFVCPECGQPCS [K11A], the protein stability index is 3.98.
In the case of LVAHQRYHTGYTPFVCPECGQPCS [K11Y] it was 3.07; in that of LVAHQRYHTGHTPFVCPECGQPCS [K11H], 3.35; in that of LVAHQRYHTGFTPFVCPECGQPCS [K11F], 2.81.
For LVAHQRYHTGGTPFVCPECGQPCS [K11G], the protein stability index was 3.45.
LVAHQRYHTGETPFVCPECGQPCS [K11E]: the protein stability index is 3.67.
Turning to LVAHQRYHTGVTPFVCPECGQPCS [K11V], the protein stability index came to 4.02.
Consider LVAHQRYHTGITPFVCPECGQPCS [K11I], for which the protein stability index is 3.31.
For the variant LVAHQRYHTGDTPFVCPECGQPCS [K11D], the protein stability index turned out to be 3.45.
On to LVAHQRYHTGNTPFVCPECGQPCS [K11N], for which the protein stability index was determined as 3.48.
LVAHQRYHTGSTPFVCPECGQPCS [K11S]: the protein stability index came out at 3.77.
On to LVAHQRYHTGTTPFVCPECGQPCS [K11T], for which the protein stability index came out at 3.19.
For the variant LVAHQRYHTGPTPFVCPECGQPCS [K11P], the protein stability index is 3.06.
Regarding LVAHQRYHTGKTPFHCPECGQPCS [V15H], the protein stability index was found to be 2.4.
Consider LVAHQRYHTGKTPFMCPECGQPCS [V15M], for which the protein stability index is 3.3.
Turning to LVAHQRYHTGKTPFKCPECGQPCS [V15K], the protein stability index was found to be 2.42.
LVAHQRYHTGKTPFQCPECGQPCS [V15Q]: the protein stability index is 3.36.
LVAHQRYHTGKTPFECPECGQPCS [V15E]: the protein stability index came out at 3.66.
Take LVAHQRYHTGKTPFFCPECGQPCS [V15F]: the protein stability index was 2.76.
With LVAHQRYHTGKTPFPCPECGQPCS [V15P], the protein stability index worked out at 3.77.
As to LVAHQRYHTGKTPFRCPECGQPCS [V15R], the protein stability index amounted to 3.06.
LVAHQRYHTGKTPFYCPECGQPCS [V15Y]: the protein stability index came to 2.96.
As for LVAHQRYHTGKTPFSCPECGQPCS [V15S], the protein stability index is 3.19.
Regarding LVAHQRYHTGKTPFGCPECGQPCS [V15G], the protein stability index was 3.03.
The same measure for LVAHQRYHTGKTPFICPECGQPCS [V15I]: 2.74; for LVAHQRYHTGKTPFACPECGQPCS [V15A]: 3.33.
The same measure for LVAHQRYHTGKTPFWCPECGQPCS [V15W]: 2.67; for LVAHQRYHTGKTPFNCPECGQPCS [V15N]: 3.51; for LVAHQRYHTGKTPFLCPECGQPCS [V15L]: 3.2.
As to LVAHQRYHTGKTPFTCPECGQPCS [V15T], the protein stability index was 3.11.
For LVAHQRYHTGKTPFCCPECGQPCS [V15C], the protein stability index came to 2.88.
Take LVAHQRYHTGKTPFDCPECGQPCS [V15D]: the protein stability index stood at 3.83.
For LVAHQWYHTGKTPFVCPECGQPCS [R6W], the protein stability index worked out at 3.1.
As to LVAHQYYHTGKTPFVCPECGQPCS [R6Y], the protein stability index came out at 3.12.
With LVAHQRYHTSKTPFVCPECGQPCS [G10S], the protein stability index was 2.4.
On to LVAHQRYHTHKTPFVCPECGQPCS [G10H], for which the protein stability index stood at 3.24.
For LVAHQRYHTQKTPFVCPECGQPCS [G10Q], the protein stability index worked out at 3.28.
LVAHQRYHTVKTPFVCPECGQPCS [G10V]: the protein stability index is 2.85.
For the variant LVAHQRYHTWKTPFVCPECGQPCS [G10W], the protein stability index came out at 3.9.
The same measure for LVAHQRYHTKKTPFVCPECGQPCS [G10K]: 2.83; for LVAHQRYHTMKTPFVCPECGQPCS [G10M]: 3.44.
As for LVAHQRYHTDKTPFVCPECGQPCS [G10D], the protein stability index was 3.96.
The same measure for LVAHQRYHTPKTPFVCPECGQPCS [G10P]: 3.09.
On to LVAHQRYHTTKTPFVCPECGQPCS [G10T], for which the protein stability index amounted to 3.01.
With LVAHQRYHTRKTPFVCPECGQPCS [G10R], the protein stability index was 2.78.
In the case of LVAHQRYHTNKTPFVCPECGQPCS [G10N], the protein stability index was determined as 3.37.
For LVAHQRYHTCKTPFVCPECGQPCS [G10C], the protein stability index is 3.44.
As for LVAHQRYHTEKTPFVCPECGQPCS [G10E], the protein stability index is 3.57.
On to LVAHQRYHTYKTPFVCPECGQPCS [G10Y], for which the protein stability index was found to be 2.82.
In the case of LVAHQRYHTLKTPFVCPECGQPCS [G10L] it was 3.64.
In the case of LVAHQRYHTAKTPFVCPECGQPCS [G10A] it was 3.15.
In the case of LVAHQRYHTFKTPFVCPECGQPCS [G10F], the protein stability index was 3.44.
As to LVAHQRYHTIKTPFVCPECGQPCS [G10I], the protein stability index is 3.5.
LVAHQRYITGKTPFVCPECGQPCS [H8I]: the protein stability index is 3.21.
